In publication PMC9335266:

biological target: TRIM7^B30.2 (PRY-SPRY domain of human TRIM7, residues 338-511) (human) (UniProt Q9C029); experiment: ITC

Compared with “2C peptide with F−2 replaced by a positively charged residue (R−2)”, “2C peptide with F−2 substituted by an acidic residue (D−2)” is lower in fold decrease in binding affinity against the 2C peptide: greater than 50 fold for the first, 8 to 15 fold for the second.

Compared with “2C peptide with F−2 replaced by polar serine (S−2)”, 2C peptide with F−2 substituted by Ala is lower in fold decrease in binding affinity against the 2C peptide: greater than 50 fold for the first, 8 fold for the second.
